Measured values: IntAct's records for PubMed 24500646

B1: DDB1- and CUL4-associated factor 8 (Homo sapiens), Q5TAQ9 (parent)
chain: MSSKGSSTDGRTDLANGSLSSSPEEMSGAEEGRETSSGIEVEASDLSLSLTGDDGGPNRTSTESRGTDTESSGEDKDSDSMEDTGHYSINDENRVHDRSEEEEEEEEEEEEEQPRRRVQRKRANRDQDSSDDERALEDWVSSETSALPRPRWQALPALRERELGSSARFVYEACGARVFVQRFRLQHGLEGHTGCVNTLHFNQRGTWLASGSDDLKVVVWDWVRRQPVLDFESGHKSNVFQAKFLPNSGDSTLAMCARDGQVRVAELSATQCCKNTKRVAQHKGASHKLALEPDSPCTFLSAGEDAVVFTIDLRQDRPASKLVVTKEKEKKVGLYTIYVNPANTHQFAVGGRDQFVRIYDQRKIDENENNGVLKKFCPHHLVNSESKANITCLVYSHDGTELLASYNDEDIYLFNSSHSDGAQYVKRYKGHRNNATVKGVNFYGPKSEFVVSGSDCGHIFLWEKSSCQIIQFMEGDKGGVVNCLEPHPHLPVLATSGLDHDVKIWAPTAEASTELTGLKDVIKKNKRERDEDSLHQTDLFDSHMLWFLMHHLRQRRHHRRWREPGVGATDADSDESPSSSDTSDEEEGPDRVQCMPS

Variants of: B1
Details: with ddb1_human DDB1, Q16531
Sequence of ddb1_human DDB1, Q16531 (Q16531 whole entry): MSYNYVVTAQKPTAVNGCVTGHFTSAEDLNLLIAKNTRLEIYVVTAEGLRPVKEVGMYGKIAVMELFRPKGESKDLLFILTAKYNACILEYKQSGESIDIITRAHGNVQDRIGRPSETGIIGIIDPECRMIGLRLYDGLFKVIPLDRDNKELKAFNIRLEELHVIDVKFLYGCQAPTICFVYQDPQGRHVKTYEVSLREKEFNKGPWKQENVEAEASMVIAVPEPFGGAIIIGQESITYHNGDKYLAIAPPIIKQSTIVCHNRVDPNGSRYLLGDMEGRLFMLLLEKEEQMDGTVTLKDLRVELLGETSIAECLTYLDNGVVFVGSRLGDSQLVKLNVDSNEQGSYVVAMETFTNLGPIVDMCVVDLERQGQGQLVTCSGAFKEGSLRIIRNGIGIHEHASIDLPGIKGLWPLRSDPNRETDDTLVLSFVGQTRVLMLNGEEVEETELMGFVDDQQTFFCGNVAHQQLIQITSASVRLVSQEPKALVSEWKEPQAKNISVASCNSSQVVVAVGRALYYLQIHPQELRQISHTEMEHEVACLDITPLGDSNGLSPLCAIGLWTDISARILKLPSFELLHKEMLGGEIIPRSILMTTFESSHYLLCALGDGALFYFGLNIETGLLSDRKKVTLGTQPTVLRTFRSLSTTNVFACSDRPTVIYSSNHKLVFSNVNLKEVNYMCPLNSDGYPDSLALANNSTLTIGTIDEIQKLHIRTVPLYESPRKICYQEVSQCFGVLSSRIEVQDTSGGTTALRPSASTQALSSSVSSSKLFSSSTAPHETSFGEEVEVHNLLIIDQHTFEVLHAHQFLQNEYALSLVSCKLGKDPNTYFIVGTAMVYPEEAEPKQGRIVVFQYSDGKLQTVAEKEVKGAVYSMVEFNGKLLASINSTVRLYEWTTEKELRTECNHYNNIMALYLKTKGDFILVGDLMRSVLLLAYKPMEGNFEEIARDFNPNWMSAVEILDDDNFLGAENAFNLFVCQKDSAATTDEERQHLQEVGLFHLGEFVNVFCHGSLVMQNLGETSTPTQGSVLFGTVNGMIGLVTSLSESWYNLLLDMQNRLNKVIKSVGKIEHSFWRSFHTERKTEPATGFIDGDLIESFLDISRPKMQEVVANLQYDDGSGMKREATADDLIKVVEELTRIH

Q: How did the “effect of a mutation on the interaction” value turn out when R314H was run?
A: Its value is “decreasing interaction strength”.

Q: R317C was tested. Which “effect of a mutation on the interaction” value did it give?
A: The value was “decreasing interaction strength”.
